Experimental data: patent publication US20070099822A1, “Regulation of tissue mineralization and phosphate metabolism by asarm peptides” (priority 2003, published 2007)

Tested on: Na+ dependent phosphate co-transport in human renal proximal tubule cell-line (Hu-CL8)
Experiment: 33PO4 uptake scintillation proximity assay (SPA) in Hu-CL8
Format: cell-based
Protocol: Measurement of ^33PO4 uptake and ^14C-α-methyl D-glucose uptake. A novel technique, scintillation proximity assay (SPA), was used to measure ^33PO4 uptake in-vitro. Human renal proximal-tubule primary cells (RPTEC) were purchased from Clonetics-Biowhittaker (Walkersville, Md.) (cat. no. CC2553) and were cultured and subcultured using the manufacturers recommended protocols, methods, buffers and media (cat. nos. CC3190, CC5034). Also a human renal cell-line (Hu-CL8) was cultured as previously described (Rowe et al. Candidate 56 and 58 kDa protein(s) responsible for mediating the renal defects in oncogenic hypophosphatemic osteomalacia. Bone 18(2):159-169, 1996). For ^33PO4-uptake measurement cells were grown in REBM media supplemented with 5% fetal calf serum (REBM-FCS) to 80% confluence (Clonetics-Biowhitaker, Walkersville, Md.: cat. nos. CC2553, CC3190 and CC5034) and seeded into 96 well (3000 cells/well) cytostar-T scintillating-microplates (Amersham-Pharmacia Biotech, Piscataway, N.J.: cat. no. RPNQ 0162). Cells were then cultured in 200 μL of REBM-FCS media for 24 h. Media was then replaced with serum free media (REBM) and the cells incubated for a further 3-4 h with Hu-MEPE, PTH (1-34) or media control respectively in REBM media. The concentrations of PTH (1-34) and Hu-MEPE were […] and each experimental dose was repeated eight times for statistical analysis. Following incubation media was removed and replaced with either phosphate uptake buffer (PUB) consisting of 150 mM NaCl/1 mM Cacl2/1.8 mM MgSO4/10 mM HEPE pH 7.0/0.1 mM phosphate buffer pH 7.0 and 3 uCi mL^−1 33P as orthophosphoric acid (18 MBq/mL or 5775.7 Gbq/mg stock solution Perkin Elmer, Wellesley, Mass.: cat. no. NEZ080). In order to determine the Na-dependent phosphate co-transporter activity a separate set of control cells were incubated with the same buffer but with choline chloride (150 mM) substituted for NaCl (CHUB buffer). […] Due to the unique design of the 96 well cytostar-plate radioactive decay in solution is not detected by the counter. In contrast, radioisotope attached to or taken into the cells initiates release of plastic-scintillant photons that are detected by the top-counter photo-multiplier tube. Thus, no washes are required and direct CPM can be counted in living cells. […] Conversion of a tetrazolium salt to a colored formazan product by living cells was then measured at 490 nm using a 96 well multi-well spectrophotometer with KC-4 software (absorbance at 490 nm is directly proportional to the number of living cells). Na-dependent ^33P uptake was then calculated by subtracting background counts and the choline chloride non Na-dependent ^33P uptake and results expressed as ^33PO4 femtomoles/10^4-cells/6 min. […]

B1: Hu-MEPE: purified insect expressed full-length recombinant human MEPE (Matrix Extracellular Phosphoglycoprotein) (protein)
chain: PTFQPQTEKTKQSCVEEQRQEEKNKDNIGFHHLGKRINQELSSKENIVQERKKDLSLSEASENKGSSKSQNYFTNRQRLNKEYSISNKENTHNGLRMSIYPKSTGNKGFEDGDDAISKLHDQEEYGAALIRNNMQHIMGPVTAIKLLGEENKENTPRNVLNIIPASMNYAKAHSKDKKKPQRDSQAQKSPVKSKSTHRIQHNIDYLKHLSKVKKIPSDFEGSGYTDLQERGDNDISPFSGDGQPFKDIPGKGEATGPDLEGKDIQTGFAGPSEAESTHLDTKKPGYNEIPEREENGGNTIGTRDETAKEADAVDVSLVEGSNDIMGSTNFKELPGREGNRVDAGSQNAHQGKVEFHYPPAPSKEKRKEGSSDAAESTNYNEIPKNGKGSTRKGVDHSNRNQATLNEKQRFPSKGKSQGLPIPSRGLDNEIKNEMDSFNGPSHENIITHGRKYHYVPHRQNNSTRNKGMPQGKGSWGRQPHSNRRFSSRRRDDSSESSDSGSSSESDGD
For B1, the “Vmax of percentage inhibition of 33PO4-uptake” value (Hu-CL8) was 9.1%, the “inhibition of Na+ dependent phosphate co-transport” value (Hu-CL8) was “dose-dependent in-vitro inhibition” and the “Km of inhibition of 33PO4-uptake” value (Hu-CL8, lineweaver-burke plot) was 23.8 ng/mL.
